For one data set, the target named is recombinant His-TBP (UniProt P20226 1-339). The experiment in a line: EMSA; supershifted by antibody; Pull-down: 100-250 pmole probe on M-280 streptavidin Dynabeads, 100-250 ug nuclear extract, 2.5 ug salmon sperm DNA, 1 h room temperature, washes with 0.5% NP-40; EMSA: LightShift kit, 20 fmol probe, 37 C 20 min, 6% gel in 1X TBE; salt and pH not given. The note with it: protein: recombinant; tags: His; label: 5'-biotin; blunt.

For the next data set, the target named is recombinant His-HOXA2 (UniProt O43364 1-376). The data set is described as above. Conditions: protein: recombinant; tags: His; label: 5'-biotin; blunt.
Sequence of recombinant His-HOXA2 (O43364 whole entry): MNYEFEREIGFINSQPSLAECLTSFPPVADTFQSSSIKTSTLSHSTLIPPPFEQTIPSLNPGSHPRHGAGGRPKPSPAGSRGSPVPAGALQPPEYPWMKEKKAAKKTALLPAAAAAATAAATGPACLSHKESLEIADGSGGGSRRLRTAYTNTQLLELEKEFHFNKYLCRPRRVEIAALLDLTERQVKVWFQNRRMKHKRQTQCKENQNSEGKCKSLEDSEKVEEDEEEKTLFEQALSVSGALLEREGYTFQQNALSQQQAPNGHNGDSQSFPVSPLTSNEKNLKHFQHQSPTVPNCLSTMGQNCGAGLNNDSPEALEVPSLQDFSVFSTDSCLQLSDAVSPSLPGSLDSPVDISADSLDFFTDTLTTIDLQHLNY

Experimental findings from paper PMC3875777, “Aberrantly hypermethylated Homeobox A2 derepresses metalloproteinase-9 through TBP and promotes invasion in Nasopharyngeal carcinoma” are described below.

Sequence of recombinant His-TBP (P20226 whole entry): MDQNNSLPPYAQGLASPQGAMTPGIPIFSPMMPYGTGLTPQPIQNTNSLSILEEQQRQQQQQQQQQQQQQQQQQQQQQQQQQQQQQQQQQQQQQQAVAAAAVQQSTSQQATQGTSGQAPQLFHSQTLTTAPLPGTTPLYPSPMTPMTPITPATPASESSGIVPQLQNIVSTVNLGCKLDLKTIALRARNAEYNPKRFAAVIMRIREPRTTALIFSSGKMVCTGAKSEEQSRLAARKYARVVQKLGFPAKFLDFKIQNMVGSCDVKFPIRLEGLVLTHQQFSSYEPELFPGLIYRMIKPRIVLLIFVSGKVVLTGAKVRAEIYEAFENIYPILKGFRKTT

B1: MMP9 TATA WT (dsDNA)
DNA 1: GAGCGCCTCCTTAAAGCCCCCACAA
DNA 2: TTGTGGGGGCTTTAAGGAGGCGCTC
Regarding B1, the binding result with recombinant His-TBP and with recombinant His-HOXA2 was “binds” each time.
